We go through two molecules from paper PMC6312923 (Life Science Alliance, 2018).

Type in all cases: cell-based, human
Test [1] relates to MCF7 cells, DNA-damage (CPD) sites. The test can be described thus: Recruitment of GFP-Cdt2 constructs to DNA-damage sites in MCF7 cells. Conditions: MCF7, UV-C 50 J/m^2, GFP fusions; two independent experiments. From the text: Figure 2. The C-terminus of Cdt2 mediates Cdt2 recruitment to sites of damage. (A) A schematic drawing of the domain structure of Cdt2 and constructs used. (B) The C-terminal, but not the N-terminal, part of Cdt2 mediates recruitment to DNA damage sites. MCF7 cells transfected with the indicated plasmids were locally UV-C irradiated (50 J/m^2 through 5 μm pore diameter micropore filters), and recruitment of each Cdt2 construct to sites of damage was examined by staining with α-CPD antibody and GFP signal.
For Western blotting, whole-cell lysates were prepared by lysing cell pellets directly in SDS–PAGE buffer. For immunofluorescence, U2OS or HEK293 cells were fixed in 4% paraformaldehyde (PFA; WAKO) for 10 min, permeabilized in 0.25% (vol/vol) Triton X-100 in PBS, and stained with the indicated antibodies as described previously. […] For cyclobutane pyrimidine dimer (CPDs) staining, MCF7 and HeLa cells were fixed in 4% PFA for 10 min, permeabilized in 0.3% Triton X-100 in PBS, and then incubated in 0.5 N NaOH for 5 min for DNA denaturation before immunofluorescence. Alexa488-conjugated anti-mouse and […] anti-rabbit antibodies were used as secondary antibodies with Hoechst 33258 to visualize DNA. […] Protein levels were analysed by ImageJ software.
We used a method to induce DNA photoproducts within localized areas of the cell nucleus as described in Ishii et al (2010). To perform micropore UV irradiation, cells were cultured on cover slips, washed twice with PBS, and subsequently covered with an isopore polycarbonate membrane filter (Millipore) with a pore size of either 3 or 5 μm in diameter, and irradiated. UV irradiation was achieved using a UV lamp (SUV-16, As One, Japan) with a dose rate of 0.4 J/m^2·s, which was monitored with a UV radiometer (UVX Radiometer, UVP) at 254 nm, or with a UV box equipped with a UV-C lamp monitored with a VLX-3W radiometer (Vilber Lourmat) at 254 nm (CX-254 sensor). The filter was removed and cells were either fixed or cultured for the indicated time before fixation, and processed for immunofluorescence. […]

For test [2], the system named is HEK293 cells, UV-irradiated sites. The test can be described thus: Recruitment of FLAG-Cdt2 to UV-irradiated (XPA) sites in HEK293 cells. Conditions: stable HEK293 cells, XPA-positive spots. The method, then: Figure 6. The Cdt2 PIP box is important for its recruitment to DNA damage sites and replication foci and for poly-ubiquitination activity. (A) HEK293 and stable Cdt2^WT or Cdt2^PIP-3A cells were locally UV irradiated, and stained for XPA and FLAG (Cdt2). XPA-positive spots were examined for FLAG signal, and its frequency was counted (%). More than 50 spots were examined. bar:10 μm. […] Bar: 10 μm. […] (D) Whole-cell extracts were prepared from HEK293 and stably transfected cells of Cdt2^WT or Cdt2^PIP-3A cells, separated into soluble (Sup) and chromatin-containing insoluble (Ppt) fractions, and were examined for indicated proteins. The asterisk indicates nonspecific bands. (E) HEK293 and stably transfected cells of Cdt2^WT or Cdt2^PIP-3A were treated with MG132 for 3 h. […]
For Western blotting, whole-cell lysates were prepared by lysing cell pellets directly in SDS–PAGE buffer. […] Protein levels were analysed by ImageJ software.
We used a method to induce DNA photoproducts within localized areas of the cell nucleus as described in Ishii et al (2010). […] UV irradiation was achieved using a UV lamp (SUV-16, As One, Japan) with a dose rate of 0.4 J/m^2·s, which was monitored with a UV radiometer (UVX Radiometer, UVP) at 254 nm, or with a UV box equipped with a UV-C lamp monitored with a VLX-3W radiometer (Vilber Lourmat) at 254 nm (CX-254 sensor). […]

For a further test, the system named is DDB1, Cul4A. The test can be described thus: Co-immunoprecipitation of DDB1 / Cul4A with FLAG-tagged Cdt2 constructs. Particulars: anti-FLAG IP, cross-linked cells. From the text:
Before cell lysate preparation, cells were cross-linked.
Figure 3. […] HEK293 cells were transfected with plasmids expressing the indicated Cdt2 fused to a C-terminal FLAG tag, cross-linked, and precipitated with anti-FLAG antibodies (arrows). […] The bands in the blank lanes for Cul4A blotting correspond to the cross-reacting bands to pre-stained marker. […] HEK293 cells were transfected with the indicated plasmids and treated as in A. * indicates nonspecific bands derived from IgGs. (C) A schematic drawing of the Cdt2 domain structure highlighting the C-terminal PIP box and a sequence alignment of PIP boxes in various organisms. The alanine-changed PIP box mutant of Cdt2 was shown (PIP-3A) together with Cdt1 PIP box. (D) HEK293 cells were transfected with Cdt2^WT or PIP box mutant (Cdt2^PIP-3A) C-terminally fused to a FLAG tag, treated as in B, and Cdt2 was precipitated with anti-FLAG resin.
Control or Cdt2-FLAG expressing 293 cells that were UV irradiated (50 J/m^2), or not UV irradiated, or in the middle S phase (5 h after release from aphidicolon arrest) were fixed with 0.02% formaldehyde for 10 min, lysed using 0.1% Triton X-100-containing modified cytoskeleton (mCSK) buffer (10 mM Pipes, pH 7.9, 100 mM NaCl, 300 mM sucrose, 0.1% [vol/vol] Triton X-100, 1 mM phenylmethylsulfonyl fluoride, 10 mM β-glycerophosphate, 1 mMNa3VO4, 10 mM NaF), and then sonicated. After centrifugation (120,000g, Beckman Type 45Ti rotor, for 20 min at 4°C), the supernatants were mixed with anti-FLAG antibody-conjugated magnetic beads (M8823; Sigma-Aldrich) for 1 h at 4°C to obtain immunoprecipitates. The precipitate was washed with ice-cold 0.1% Triton X-100 containing mCSK buffer and subsequently suspended in SDS sample buffer.

Another test relates to p21 poly-ubiquitination. The test can be described thus: Poly-ubiquitination of p21 in HEK293 cells. Particulars: HEK293, MG132 3 h, chromatin fraction. The method, then: Figure 6. The Cdt2 PIP box is important for its recruitment to DNA damage sites and replication foci and for poly-ubiquitination activity. (A) HEK293 and stable Cdt2^WT or Cdt2^PIP-3A cells were locally UV irradiated, and stained for XPA and FLAG (Cdt2). XPA-positive spots were examined for FLAG signal, and its frequency was counted (%). More than 50 spots were examined. bar:10 μm. […] Bar: 10 μm. […] (D) Whole-cell extracts were prepared from HEK293 and stably transfected cells of Cdt2^WT or Cdt2^PIP-3A cells, separated into soluble (Sup) and chromatin-containing insoluble (Ppt) fractions, and were examined for indicated proteins. The asterisk indicates nonspecific bands. (E) HEK293 and stably transfected cells of Cdt2^WT or Cdt2^PIP-3A were treated with MG132 for 3 h. Whole-cell extracts (WCE) were prepared, separated into soluble (Sup) and insoluble (Ppt) fractions, and blotted with the indicated antibodies.
To consider this possibility, asynchronously growing control HEK293 cells and cells expressing Cdt2^WT or Cdt2^PIP-3A were treated with proteasome inhibitor MG132 and the levels of poly-ubiquitinated Cdt1 were examined. […] Cdt2^PIP-3A-expressing cells however had reduced level of both poly-ubiquitinated Cdt1 and p21 on chromatin.

In a further test the test system is PCNA mono-ubiquitination. The test can be described thus: Mono-ubiquitination of PCNA. Particulars: in comparison with Cdt2^wt-expressing cells, Fig S7B. From the text: Figure S7. Cdt2 PIP box is important for CRL4^Cdt2 activity in U2OS cells. (A) U2OS stable cells expressing Cdt2^WT or Cdt2^PIP-3A. U2OS cells were transfected with expression vectors for Cdt2^WT-FLAG or Cdt2^PIP-3A-FLAG, and isolated stable clones were verified by immunofluorescent analysis and Western blot analysis. Frequency of expressing cells for each construct was shown (%). (B) Poly-ubiquitination assay with U2OS stable cells. U2OS cells and Cdt2^WT-3FLAG or Cdt2^PIP-3A-3FLAG expressing stable U2OS cells were treated with MG132 for 3 h or not (−), and whole-cell extracts were prepared for Western blotting. (C) Cells were transfected with siCdt2 or control siLuc for 72 h, irradiated with UV (+, 5 J/m^2) or not (−), and collected 1h later for Western blotting. Relative levels of Cdt1 were shown, UV (−) level set as 1.0 (average of two independent experiments).

With “Cdt2: Cdt2 tagged with GFP, transiently expressed in MCF7 cells”, the “recruitment to DNA-damage sites” value in test [1] is reported as “robustly detected at DNA-damage sites”.

B1: Cdt2^PIP-3A: Cdt2 with I709, Y712, and F713 all mutated to alanine (protein, UniProt Q9NZJ0 1-730, looked up, variant I709A Y712A F713A)
Denticleless protein homolog: MLFNSVLRQPQLGVLRNGWSSQYPLQSLLTGYQCSGNDEHTSYGETGVPVPPFGCTFSSAPNMEHVLAVANEEGFVRLYNTESQSFRKKCFKEWMAHWNAVFDLAWVPGELKLVTAAGDQTAKFWDVKAGELIGTCKGHQCSLKSVAFSKFEKAVFCTGGRDGNIMVWDTRCNKKDGFYRQVNQISGAHNTSDKQTPSKPKKKQNSKGLAPSVDFQQSVTVVLFQDENTLVSAGAVDGIIKVWDLRKNYTAYRQEPIASKSFLYPGSSTRKLGYSSLILDSTGSTLFANCTDDNIYMFNMTGLKTSPVAIFNGHQNSTFYVKSSLSPDDQFLVSGSSDEAAYIWKVSTPWQPPTVLLGHSQEVTSVCWCPSDFTKIATCSDDNTLKIWRLNRGLEEKPGGDKLSTVGWASQKKKESRPGLVTVTSSQSTPAKAPRAKCNPSNSSPSSAACAPSCAGDLPLPSNTPTFSIKTSPAKARSPINRRGSVSSVSPKPPSSFKMSIRNWVTRTPSSSPPITPPASETKIMSPRKALIPVSQKSSQAEACSESRNRVKRRLDSSCLESVKQKCVKSCNCVTELDGQVENLHLDLCCLAGNQEDLSKDSLGPTKSSKIEGAGTSISEPPSPISPYASESCGTLPLPLRPCGEGSEMVGKENSSPENKNWLLAMAAKRKAENPSPRSPSSQTPNSRRQSGKKLPSPVTITPSSMRKACTAAHRKSQEDFCGPEHSTEL
modifications: FLAG tag
notes: Cdt2 with I709, Y712, and F713 all mutated to alanine
Regarding B1, the “recruitment to UV-irradiated sites” value in test [2] was “not recruited to UV-irradiated sites”. In addition, in the test on DDB1, Cul4A, the “binding to DDB1 (and Cul4A)” value was “without significantly affecting interaction with Cul4A and DDB1”. For the same molecule, the “poly-ubiquitinated p21 on chromatin” value with p21 poly-ubiquitination is given as “reduced level”. Also, the mUb-PCNA level entry in the test with PCNA mono-ubiquitination is given as “decreased”.
